The numbers were not newly measured in article PMC3946517, which cites them from elsewhere.

Data set [1] addresses quinol MADH (Paracoccus denitrificans) (UniProt P22619). In words: stopped-flow kinetics.
Data set [2] deals with preMADH (Paracoccus denitrificans) (UniProt P22619). The data set is described as follows: stopped-flow kinetics.

On to MauG (from UniProt Q51658), for which the results for the Kd in data set [1] and in data set [2] were 11.2 µM and below 1.5 µM, respectively.

As usually defined, the Kd is the equilibrium constant for the complex coming apart.
